This data set has as its system Escherichia coli TOP10. Kind of data set: shrunken log2 fold change of peptide-encoding DNA abundance (4.5 h post-induction vs induction); higher = less antimicrobial activity (less host growth inhibition). The settings on record: time post-induction: 4.5 h; library: site-saturation at positions 5, 18, 19, 20.
As to RRIRERPPRLPRPRPRPYKDPRP, the “shrunken log2 fold change” value is -0.157.
RRIRQRPPRLPRPRPRPWVTPRP: the “shrunken log2 fold change” value is -0.219.
In the case of RRIRYRPPRLPRPRPRPEELPRP it was -0.0326; in that of RRIRNRPPRLPRPRPRPGHKPRP, 0.0903.
Take RRIRPRPPRLPRPRPRPEQLPRP: the “shrunken log2 fold change” value turned out to be 0.0838.
In the case of RRIRKRPPRLPRPRPRPYVQPRP it was -0.332; in that of RRIRERPPRLPRPRPRPNTGPRP, -0.385; in that of RRIRCRPPRLPRPRPRPWVRPRP, -0.0386.
Turning to RRIRRRPPRLPRPRPRPACFPRP, the “shrunken log2 fold change” value came to 0.456.
In the case of RRIRKRPPRLPRPRPRPPAVPRP it was 0.847; in that of RRIRRRPPRLPRPRPRPNEDPRP, 0.352; in that of RRIRDRPPRLPRPRPRPCAFPRP, 0.822.
In the case of RRIRPRPPRLPRPRPRPHDYPRP it was -0.0318; in that of RRIRARPPRLPRPRPRPCCLPRP, 0.0817.
As to RRIRNRPPRLPRPRPRPHGSPRP, the “shrunken log2 fold change” value was -0.00146.
Turning to RRIRARPPRLPRPRPRPIYHPRP, the “shrunken log2 fold change” value is -0.359.
The value for RRIRARPPRLPRPRPRPVDNPRP was 0.0773; that for RRIRSRPPRLPRPRPRPKRMPRP was 0.00691; that for RRIRSRPPRLPRPRPRPVIIPRP was -0.254.
Turning to RRIRERPPRLPRPRPRPGIQPRP, the “shrunken log2 fold change” value is -0.398.
In the case of RRIRHRPPRLPRPRPRPDPRPRP it was 0.0959; in that of RRIRARPPRLPRPRPRPPEWPRP, 0.734.
The value for RRIRHRPPRLPRPRPRPYEWPRP was -0.0335; that for RRIRDRPPRLPRPRPRPCDPPRP was 0.041.
Take RRIRPRPPRLPRPRPRPPCGPRP: the “shrunken log2 fold change” value is 0.254.
In the case of RRIRVRPPRLPRPRPRPIWTPRP, the “shrunken log2 fold change” value is -0.0382.
In the case of RRIRDRPPRLPRPRPRPVQVPRP it was 0.011.
The value for RRIRPRPPRLPRPRPRPFDWPRP was 0.171; that for RRIRQRPPRLPRPRPRPQHCPRP was -0.076; that for RRIRVRPPRLPRPRPRPRYFPRP was -0.446.
In the case of RRIRYRPPRLPRPRPRPRMAPRP it was 0.0395.
RRIRPRPPRLPRPRPRPSFTPRP: the “shrunken log2 fold change” value was -0.213.
The value for RRIRDRPPRLPRPRPRPLNKPRP was -0.295; that for RRIRGRPPRLPRPRPRPNTEPRP was 0.299.
Turning to RRIRWRPPRLPRPRPRPCDSPRP, the “shrunken log2 fold change” value was -0.00192.
In the case of RRIRVRPPRLPRPRPRPDSTPRP it was -0.0391; in that of RRIRIRPPRLPRPRPRPYRLPRP, 0.00643; in that of RRIRIRPPRLPRPRPRPNMKPRP, -0.625.
Consider RRIRLRPPRLPRPRPRPAHAPRP, for which the “shrunken log2 fold change” value was 0.195.
For the sequence RRIRLRPPRLPRPRPRPAYWPRP, the “shrunken log2 fold change” value was 0.154.
The value for RRIRHRPPRLPRPRPRPIACPRP was 0.0428.
With RRIRVRPPRLPRPRPRPTNMPRP, the “shrunken log2 fold change” value is -0.472.
In the case of RRIRKRPPRLPRPRPRPFPFPRP it was -0.255; in that of RRIRKRPPRLPRPRPRPGVVPRP, 0.755; in that of RRIRDRPPRLPRPRPRPKRQPRP, -0.0603.
For the sequence RRIRNRPPRLPRPRPRPMITPRP, the “shrunken log2 fold change” value was -0.0996.
In the case of RRIRKRPPRLPRPRPRPGTGPRP it was 0.1; in that of RRIRKRPPRLPRPRPRPDGGPRP, 0.157.
The value for RRIRNRPPRLPRPRPRPQRFPRP was -0.155; that for RRIRMRPPRLPRPRPRPPMLPRP was 0.382; that for RRIRHRPPRLPRPRPRPHEDPRP was 0.0316.
For RRIRNRPPRLPRPRPRPSDYPRP, the “shrunken log2 fold change” value came out at 0.075.
The value for RRIRQRPPRLPRPRPRPIKRPRP was -0.354; that for RRIRSRPPRLPRPRPRPSGCPRP was 0.208.
In the case of RRIRHRPPRLPRPRPRPFNVPRP it was 1.22; in that of RRIRKRPPRLPRPRPRPQLYPRP, 0.0948; in that of RRIRSRPPRLPRPRPRPGPSPRP, 0.456.
Consider RRIRRRPPRLPRPRPRPSVYPRP, for which the “shrunken log2 fold change” value was -0.0412.
In the case of RRIRVRPPRLPRPRPRPCNCPRP it was -0.0105; in that of RRIRMRPPRLPRPRPRPEAAPRP, 3.45; in that of RRIRWRPPRLPRPRPRPINFPRP, -0.143.
The value for RRIRVRPPRLPRPRPRPCLLPRP was -0.072; that for RRIRDRPPRLPRPRPRPNDWPRP was -0.0967.
The value for RRIRLRPPRLPRPRPRPTPQPRP was 0.594; that for RRIRPRPPRLPRPRPRPPIDPRP was 0.216.
Regarding RRIRKRPPRLPRPRPRPTVIPRP, the “shrunken log2 fold change” value is -0.15.
The value for RRIRTRPPRLPRPRPRPKFDPRP was -0.0528.
As for RRIRHRPPRLPRPRPRPEWNPRP, the “shrunken log2 fold change” value was -0.294.
On to RRIRERPPRLPRPRPRPKCRPRP, for which the “shrunken log2 fold change” value was -0.0625.
The value for RRIRLRPPRLPRPRPRPTFHPRP was 0.258.
The value for RRIRIRPPRLPRPRPRPQRNPRP was -0.188; that for RRIRFRPPRLPRPRPRPHFFPRP was -0.053.
Regarding RRIRQRPPRLPRPRPRPRPLPRP, the “shrunken log2 fold change” value was found to be 0.382.
In the case of RRIRMRPPRLPRPRPRPIDEPRP it was -0.0525; in that of RRIRGRPPRLPRPRPRPAEIPRP, 0.076.
RRIRSRPPRLPRPRPRPSSEPRP: the “shrunken log2 fold change” value is 0.0612.
The value for RRIRPRPPRLPRPRPRPGTMPRP was -0.133.
The value for RRIRKRPPRLPRPRPRPDPGPRP was 0.335.
Consider RRIRNRPPRLPRPRPRPAVQPRP, for which the “shrunken log2 fold change” value turned out to be 0.109.
The value for RRIRSRPPRLPRPRPRPDYNPRP was -0.622; that for RRIRLRPPRLPRPRPRPCSVPRP was -0.0962.
The value for RRIRNRPPRLPRPRPRPNDEPRP was -0.227; that for RRIRYRPPRLPRPRPRPYIEPRP was -0.469.
As for RRIRIRPPRLPRPRPRPLSWPRP, the “shrunken log2 fold change” value was -0.0609.
In the case of RRIRVRPPRLPRPRPRPRWGPRP it was 0.157.
The value for RRIRMRPPRLPRPRPRPPWMPRP was 0.537; that for RRIRERPPRLPRPRPRPGQDPRP was -0.0237.
In the case of RRIRSRPPRLPRPRPRPTIDPRP it was -0.00141; in that of RRIRQRPPRLPRPRPRPPGIPRP, -0.0579; in that of RRIRHRPPRLPRPRPRPLTGPRP, -0.00273.
For RRIRGRPPRLPRPRPRPTYPPRP, the “shrunken log2 fold change” value was 0.0703.

(Values after the supplement of paper PMC9112550, “Optimization of the antimicrobial peptide Bac7 by deep mutational scanning” (BMC Biology, 2022).)
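Also: peptides expressed intracellularly from a pBAD plasmid library in pooled LB shake-flask culture, induced with 0.3% L-arabinose, DNA abundance read by NGS, three biological replicates, DESeq2 with apeglm shrinkage.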
